Values quoted from earlier work in article PMC6614495.

Biological target: Amyloid beta (Homo sapiens) (UniProt P05067)
Sequence (P05067 672-711): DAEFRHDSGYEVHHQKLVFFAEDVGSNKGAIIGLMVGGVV

Sequence of Clusterin (ApoJ) (P10909 23-227): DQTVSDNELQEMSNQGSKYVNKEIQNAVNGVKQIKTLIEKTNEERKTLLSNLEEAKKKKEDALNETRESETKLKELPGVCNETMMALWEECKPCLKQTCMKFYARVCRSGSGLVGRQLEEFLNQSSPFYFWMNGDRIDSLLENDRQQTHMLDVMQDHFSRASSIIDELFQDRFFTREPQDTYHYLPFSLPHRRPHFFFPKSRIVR
Sequence of Clusterin (ApoJ) (P10909 228-449): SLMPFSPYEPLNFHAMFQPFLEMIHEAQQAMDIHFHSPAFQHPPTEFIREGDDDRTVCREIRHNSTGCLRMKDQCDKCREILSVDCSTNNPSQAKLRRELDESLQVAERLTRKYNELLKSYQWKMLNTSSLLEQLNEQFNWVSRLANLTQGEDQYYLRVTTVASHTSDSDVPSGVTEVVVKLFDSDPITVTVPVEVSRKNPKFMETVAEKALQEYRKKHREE

Q: For Clusterin (ApoJ) (from UniProt P10909), which Kd is on record?
A: 2 nM
